Results on 11 molecules are retold here after PMC4137731, “C-Terminal Domain Swapping of SSB Changes the Size of the ssDNA Binding Site”.

Conditions in all cases: protein: recombinant; tags: none (untagged); chain copies: 4; label: 5' 32P
Series [1] addresses T1, KpSSB (Klebsiella pneumoniae subsp. pneumoniae …, UniProt A6TGW7 1-174). As to the kind of experiment: EMSA; monomer conc.; 1 complex; 20 mM Tris-HCl pH 8.0, 100 mM NaCl, 25°C 30 min, 1.7 nM DNA, protein 0-5000 nM; native 8% PAGE in TBE at 4°C.
Series [2] deals with T2, PaSSB (Pseudomonas aeruginosa PAO1, UniProt P40947 1-165). The description is as above.
Series [3] addresses T3, StSSB (Salmonella enterica serovar Typhimurium …, UniProt P0A2F6 1-176). The series is described as above.
For series [4], the target named is T1, KpSSB. Put plainly: EMSA; no band shift up to 5000 nM; 20 mM Tris-HCl pH 8.0, 100 mM NaCl, 25°C 30 min, 1.7 nM DNA, protein 0-5000 nM; native 8% PAGE in TBE at 4°C. For orientation: In EMSA bound probe runs differently from free probe, usually more slowly.
Series [5] addresses T1, KpSSB. Put plainly: EMSA; monomer conc.; 2 complexes; 20 mM Tris-HCl pH 8.0, 100 mM NaCl, 25°C 30 min, 1.7 nM DNA, protein 0-5000 nM; native 8% PAGE in TBE at 4°C.
The target in series [6] is T2, PaSSB. Described as above.
Series [7] has as its target T3, StSSB. The series is described as above.

Turning to TTTTTTTTTTTTTTTTTTTTTTTTT (ssDNA) [dT25], the “apparent K (half saturation)” value with KpSSB [1] was found to be 200 ± 20 nM; with PaSSB [2], 1700 ± 250 nM.

Regarding TTTTTTTTTTTTTTTTTTTT (ssDNA) [dT20], the “apparent K (half saturation)” value with StSSB [3] was 450 ± 80 nM. The binding result with KpSSB [4] is “no binding”.

As to TTTTTTTTTTTTTTTTTTTTTTTTTTTTTT (ssDNA) [dT30], the “apparent K (half saturation)” value in the series with StSSB [3] stood at 420 ± 60 nM.

Turning to TTTTTTTTTTTTTTT (ssDNA) [dT15], in the series with StSSB [3], the “apparent K (half saturation)” value stood at 650 ± 120 nM.

B1: dT55 (ssDNA)
DNA: TTTTTTTTTTTTTTTTTTTTTTTTTTTTTTTTTTTTTTTTTTTTTTTTTTTTTTT
As to B1, the “apparent K (half saturation)” value was found to be 100 ± 20 nM in the series with KpSSB [5] and 820 ± 90 nM with PaSSB [2].

B2: dT65 (ssDNA)
DNA: TTTTTTTTTTTTTTTTTTTTTTTTTTTTTTTTTTTTTTTTTTTTTTTTTTTTTTTTTTTTTTTTT
Regarding B2, the “apparent K (half saturation)” value with PaSSB [6] was found to be 550 ± 70 nM.

On to TTTTTTTTTTTTTTTTTTTTTTTTTTTTTTTTTTTTTTTTTTTTTTTTTT (ssDNA) [dT50], for which the results for the “apparent K (half saturation)” value with StSSB [7] and with KpSSB [1] were 440 ± 50 nM and 110 ± 20 nM, respectively.

B3: dT60 (ssDNA)
DNA: TTTTTTTTTTTTTTTTTTTTTTTTTTTTTTTTTTTTTTTTTTTTTTTTTTTTTTTTTTTT
Consider B3, for which the “apparent K (half saturation)” value with KpSSB [5] stood at 100 ± 10 nM; in the series with PaSSB [6], 810 ± 110 nM.

As to TTTTTTTTTTTTTTTTTTTTTTTTTTTTTTTTTTT (ssDNA) [dT35], the “apparent K (half saturation)” value with KpSSB [1] turned out to be 220 ± 30 nM; with PaSSB [2], 950 ± 180 nM.

Take TTTTTTTTTTTTTTTTTTTTTTTTTTTTTTTTTTTTTTTTTTTTT (ssDNA) [dT45]: the results for the “apparent K (half saturation)” value with StSSB [7], with KpSSB [1] and with PaSSB [2] were 440 ± 60 nM, 100 ± 10 nM and 780 ± 160 nM, respectively.

With TTTTTTTTTTTTTTTTTTTTTTTTTTTTTTTTTTTTTTTT (ssDNA) [dT40], the “apparent K (half saturation)” value in the series with StSSB [3] was 420 ± 80 nM.
